Patent publication US20150259430A1 (MAB DISCOVERY, published 2015)

Columns and labels:
[1] = molecular target: T1, recombinant Fc chimeric conjugate of human EGFR (human, UniProt P00533 25-645); experiment: ELISA, coated antigen; supernatant IgG 425.7 ng/ml
T1 construct: extracellular domain; Coated on the ELISA plate; also called HER1; Her1
Protocol: (§1) Microtiter plates were coated with a) c-Met, IGF-1R, EGFR, HER2, and/or HER3 protein or b) EGFR, HER2, and/or HER3 (recombinant Fc chimeric conjugates of human c-Met, IGF-1R, EGFR, HER2, HER3 or IL12 Rβ1). After a blocking process, specific antibodies from B-cell supernatants bind to the targets and are then detected by a POD-labeled anti-rabbit IgG antibody. The IL12R binding was used as a counter-screen.
(§2) 12.5 μL 0.5 μg/mL protein in PBS was transferred to a microtiter plate incubated and washed 3× with Wash Buffer. 90 μL Block Buffer was added to each well, incubated and washed. 12.5 μL Standard Antibody (Anti-EGF-Receptor; HER2 Rabbit anti-Human Monoclonal (extracellular domain) (SP3) Antibody; HER3 (N-terminal) antibody; start concentration 2 μg/ml; IL-12Rbeta1 antibody start concentration 500 ng/ml) in 1:2 dilutions or sample diluted in ELISA buffer was added, incubated and washed. 12.5 μl 1:5000 POD-Antibody (Anti-rabbit IgG, peroxidase-linked species-specific Fab2 fragment (from donkey) (ECL); assay dilution: 1:5000) in Elisa Buffer was added, incubated and washed. 15 μl TMB was added and 15 μl HCl was added after sufficient development. Absorbance (Optical Density O.D.) was read at 450 nm/620 nm.

[2] = molecular target: T2, recombinant Fc chimeric conjugate of human HER2 (human, UniProt P04626 23-652); experiment: ELISA, coated antigen; supernatant IgG 425.7 ng/ml
T2 construct: extracellular domain; Coated on the ELISA plate
Protocol: as §1, §2

[3] = molecular target: T3, recombinant Fc chimeric conjugate of human HER3 (human, UniProt P21860 20-643); experiment: ELISA, coated antigen; supernatant IgG 425.7 ng/ml
T3 construct: extracellular domain; Coated on the ELISA plate
Protocol: as §1, §2

[4] = molecular target: T1, recombinant Fc chimeric conjugate of …; experiment: ELISA, coated antigen; supernatant IgG 81.8 ng/ml
Protocol: as §1, §2

[5] = molecular target: T2, recombinant Fc chimeric conjugate of …; experiment: ELISA, coated antigen; supernatant IgG 81.8 ng/ml
Protocol: as §1, §2

[6] = molecular target: T3, recombinant Fc chimeric conjugate of …; experiment: ELISA, coated antigen; supernatant IgG 81.8 ng/ml
Protocol: as §1, §2

[7] = molecular target: T1, recombinant Fc chimeric conjugate of …; experiment: ELISA, coated antigen; supernatant IgG 719.9 ng/ml
Protocol: as §1, §2

[8] = molecular target: T2, recombinant Fc chimeric conjugate of …; experiment: ELISA, coated antigen; supernatant IgG 719.9 ng/ml
Protocol: as §1, §2

[9] = molecular target: T3, recombinant Fc chimeric conjugate of …; experiment: ELISA, coated antigen; supernatant IgG 719.9 ng/ml
Protocol: as §1, §2

[10] = molecular target: T1, recombinant Fc chimeric conjugate of …; experiment: ELISA, coated antigen; supernatant IgG 377.5 ng/ml
Protocol: as §1, §2

[11] = molecular target: T2, recombinant Fc chimeric conjugate of …; experiment: ELISA, coated antigen; supernatant IgG 377.5 ng/ml
Protocol: as §1, §2

[12] = molecular target: T3, recombinant Fc chimeric conjugate of …; experiment: ELISA, coated antigen; supernatant IgG 377.5 ng/ml
Protocol: as §1, §2

[13] = molecular target: T1, recombinant Fc chimeric conjugate of …; experiment: ELISA, coated antigen; supernatant IgG 1500.0 ng/ml
Protocol: as §1, §2

[14] = molecular target: T2, recombinant Fc chimeric conjugate of …; experiment: as above
Protocol: as §1, §2

[15] = molecular target: T3, recombinant Fc chimeric conjugate of …; experiment: as above
Protocol: as §1, §2

[16] = molecular target: T2, recombinant Fc chimeric conjugate of …; experiment: ELISA, coated antigen; supernatant IgG 51.60 ng/mL
Protocol: as §1, §2

[17] = molecular target: T3, recombinant Fc chimeric conjugate of …; experiment: ELISA, coated antigen; supernatant IgG 51.60 ng/mL
Protocol: as §1, §2

[18] = molecular target: T4, recombinant Fc chimeric conjugate of human c-Met (human, UniProt P08581 25-932); experiment: ELISA, coated antigen; supernatant IgG 51.60 ng/mL
T4 construct: extracellular domain; Coated on the ELISA plate
Protocol: as §1, §2

[19] = molecular target: T1, recombinant Fc chimeric conjugate of …; experiment: ELISA, coated antigen; supernatant IgG 183.28 ng/mL
Protocol: as §1, §2

[20] = molecular target: T2, recombinant Fc chimeric conjugate of …; experiment: as above
Protocol: as §1, §2

[21] = molecular target: T3, recombinant Fc chimeric conjugate of …; experiment: as above
Protocol: as §1, §2

[22] = molecular target: T4, recombinant Fc chimeric conjugate of …; experiment: as above
Protocol: as §1, §2

T3 sequence (P21860 20-643, change not shown): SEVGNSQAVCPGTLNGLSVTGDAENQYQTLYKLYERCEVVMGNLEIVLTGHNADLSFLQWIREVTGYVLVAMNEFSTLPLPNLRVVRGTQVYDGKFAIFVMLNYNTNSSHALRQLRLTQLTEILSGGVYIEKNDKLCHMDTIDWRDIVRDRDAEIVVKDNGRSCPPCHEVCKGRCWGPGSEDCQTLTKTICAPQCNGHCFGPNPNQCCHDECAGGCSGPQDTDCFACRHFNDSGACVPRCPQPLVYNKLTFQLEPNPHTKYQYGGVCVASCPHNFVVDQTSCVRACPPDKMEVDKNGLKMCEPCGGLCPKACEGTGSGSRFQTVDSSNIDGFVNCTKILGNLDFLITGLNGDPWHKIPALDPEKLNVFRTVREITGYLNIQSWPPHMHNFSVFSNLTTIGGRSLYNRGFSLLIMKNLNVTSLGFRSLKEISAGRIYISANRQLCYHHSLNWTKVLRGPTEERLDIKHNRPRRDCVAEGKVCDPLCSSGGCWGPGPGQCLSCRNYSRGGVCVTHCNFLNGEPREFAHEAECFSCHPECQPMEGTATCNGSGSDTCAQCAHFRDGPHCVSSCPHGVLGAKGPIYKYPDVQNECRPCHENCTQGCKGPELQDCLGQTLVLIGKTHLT
T4 sequence (P08581 25-932, change not shown): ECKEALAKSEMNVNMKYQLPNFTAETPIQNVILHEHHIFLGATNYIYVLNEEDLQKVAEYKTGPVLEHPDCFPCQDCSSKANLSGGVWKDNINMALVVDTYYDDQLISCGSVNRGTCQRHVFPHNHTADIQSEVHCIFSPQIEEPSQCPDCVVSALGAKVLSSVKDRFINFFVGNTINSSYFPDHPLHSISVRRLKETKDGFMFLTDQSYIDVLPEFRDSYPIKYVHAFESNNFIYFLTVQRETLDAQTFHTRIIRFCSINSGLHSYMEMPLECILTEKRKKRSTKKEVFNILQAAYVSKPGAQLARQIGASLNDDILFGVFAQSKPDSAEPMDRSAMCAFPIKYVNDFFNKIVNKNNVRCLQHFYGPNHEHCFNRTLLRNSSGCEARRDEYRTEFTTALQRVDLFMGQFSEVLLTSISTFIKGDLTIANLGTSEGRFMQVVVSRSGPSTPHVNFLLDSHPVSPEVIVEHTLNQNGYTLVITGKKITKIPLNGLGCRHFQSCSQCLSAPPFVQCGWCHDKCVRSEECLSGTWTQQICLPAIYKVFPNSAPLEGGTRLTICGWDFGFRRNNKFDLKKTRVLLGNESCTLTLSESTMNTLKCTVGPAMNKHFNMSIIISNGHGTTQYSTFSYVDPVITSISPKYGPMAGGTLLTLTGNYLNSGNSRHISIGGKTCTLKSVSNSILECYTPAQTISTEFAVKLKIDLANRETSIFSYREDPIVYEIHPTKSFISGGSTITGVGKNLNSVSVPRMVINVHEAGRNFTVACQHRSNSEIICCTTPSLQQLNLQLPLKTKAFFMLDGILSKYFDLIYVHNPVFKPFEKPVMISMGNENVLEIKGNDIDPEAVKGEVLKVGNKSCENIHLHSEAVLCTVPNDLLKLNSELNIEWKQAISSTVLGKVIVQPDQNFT

B1: Antibody 65 (antibody, V domains shown)
VH: QSVEESGGRLVTPGTPLTLTCTVSGFSLNNYYMTWVRQAPGKGLEWIGVISGSATTYYASWAKGRFTISQTSTTVDLRITSPTTEDTATYFCARSLTADIIDYYNIWGPGTLVTVSL
VL: DVVMTQTPASVSEPVGGTVTIKCQASEDINALLAWYQQKPGQPPKLLIYVASYLQSGVPSRFKGSGSGTEYTLTISGVQCADAATYYCQSAYDSSGYVGAFGGGTEVVVK
notes: rabbit IgG in B-cell supernatant
Optical density (OD) [1]: 2.5 OD | Optical density (OD) [2]: 2.9 OD | Optical density (OD) [3]: 1.9 OD

B2: Antibody 48 (antibody, V domains shown)
VH: QSLEESGGDLVKPGASLTLTCTASGFDLNSDYWICWVRQAPGKGLEWIACIDTGYGDIYYASWAKGRFTISKTSSTTVTLQMTSLTAADTATYFCAREIIFHFNLWGPGTLVTVSS
VL: DVVMTQTPASVSEPVGGTVTIKCQASQSIRSYLAWYQQKPGQPPKVLIYKASTLASGVSSRFKGSGSGTQFTLTISDLECADAATYYCQGGVELNNYLYNPFGGGTEVVVK
notes: as for B1
Optical density (OD) [4]: 1.2 OD | Optical density (OD) [5]: 1.2 OD | Optical density (OD) [6]: 1.1 OD

B3: Antibody 37 (antibody, V domains shown)
VH: QSLEESGGDLVQPEGSLTLTCKASGLDFSSSYWICWVRQAPGKGLEWIACIDTGYGDIYYASWAKGRFTMSKTSSTTVTLQMTSLTAADTATYFCAREKIFHFNLWGPGTLVTVSS
VL: DVVMTQTPASVSEPVGGTVTIKCQASQSIKNYLSWYQQKPGQPPKVLLYKASTLASGVSSRFKGSGSGTQFTLTISDLECADAATYYCQGGVEVNNYLYNPFGGGTEVVVK
notes: as for B1
Optical density (OD) [7]: 2.9 OD | Optical density (OD) [8]: 2.7 OD | Optical density (OD) [9]: 2.7 OD

B4: Antibody 49 (antibody, V domains shown)
VH: QSLEESGGDLVKPGASLTLTCTASGFDLNSNYWICWVRQAPGKGLEWIACIDTGYGDIYYASWAKGRFTISKTSSTTVTLQMTSLTAADTATYFCAREIIFHFNLWGPGTLVTVSS
VL: DVVMTQTPASVSEPVGGTVTIKCQASQSISSYLAWYQQKPGQPPKVLIYKASTLASGVSSRFKGSGSGTQFTLTISDLECADAATYYCQGGVEVNNYLYNPFGGGTEVVVK
notes: as for B1
Optical density (OD) [10]: 2.5 OD | Optical density (OD) [11]: 0.4 OD | Optical density (OD) [12]: 0.6 OD

B5: Antibody 86 (antibody, V domains shown)
VH: QEQLKESGGGLVTPGGTLTLTCTVSGIDLSNYAMVWVRQAPGKGLEWIGIIYTTASTTYANWAKGRFTISKTSTTVDLKITSPTTEDTATYFCVRRSGWDGFDPWGPGTLVTVSS
VL: AQVLTQTPASVSAAVGGTVTINCQASESISSYLNWYQQKPGQPPKRLIYRTSTLASGVPSRFKGSGSGTDFTLTISGVECADAATYYCQQDWSSSDVENVFGGGTEVVVK
notes: as for B1
Optical density (OD) [13]: 1.1 OD | Optical density (OD) [14]: 1.8 OD | Optical density (OD) [15]: 0.8 OD

B6: Antibody 77.B08 (antibody, V domains shown)
VH: QEHLVESGGGLVQPEGSLTLTCTASGFDFSSDDMSWVRQAPGKGLEWIGVIGTGNGGTYYASWAKGRFTISKTSSTTVTLQMTSLTAADTATYFCAAFWGLWGPGTLVTVSS
VL: AQVLTQTASPVSTPVGGTVTITCQSSQSVYNNNRLAWFQQKPGQPPKLLIYTASTLASGVPSRFKGSGSGTQFTLTISDLECDDAATYYCAGGYSTDIYTFGGGTEVVVR
notes: as for B1
Optical density (OD) [16]: 0.112 OD | Optical density (OD) [17]: 0.242 OD | Optical density (OD) [18]: 0.144 OD

B7: Antibody B08 (antibody, V domains shown)
VH: QEHLVESGGGLVQPEGSLTLTCTASGFDFSSDDMSWVRQAPGKGLEWIGVIGTGNGGTYYASWAKGRFTISKTSSTTVTLQMTSLTAADTATYFCAAFWGLWGPGTLVTVSS
VL: AQVLTQTASPVSAAVGGTVTITCQSSQSVYNNIRLAWFQQKPGQPPKLLIYTTSSLASGVPSRFKGSGSGTQFTLTISDLECDDAATYYCAGGYSSDIYTFGGGTEVVVR
notes: as for B1
Optical density (OD) [19]: 0.405 OD | Optical density (OD) [20]: 0.402 OD | Optical density (OD) [21]: 1.14 OD | Optical density (OD) [22]: 0.7 OD
